According to US8242083B2, “Kinase substrates” (PerkinElmer Health Sciences, Inc., priority 2008, dated 2012):

Columns and labels:
Type in all cases: biochemical
ROS = ROS (Homo sapiens, UniProt P08922); test: TR-FRET kinase assay, ROS; settings: Kinase Concentration 0.25 nM; 50 nM ULight-labeled substrate, 200 micromolar ATP, 2 hours
Procedure: (§1) TR-FRET kinase assays are performed under standardized conditions: various individual kinases are incubated with 50 nM of kinase substrate BRB1 labeled with the TR-FRET acceptor dye ULight (PerkinElmer) and 200 micromolar ATP in 10 μL of kinase assay buffer (50 mM HEPES pH7.5, 10 mM MgCl2, 3 mM MnCl2, 1 mM EGTA, 2 mM DTT and 0.01% Tween-20) for 2 hours at room temperature. Reactions are stopped with EDTA, and anti-phospho-tyrosine antibodies (clone PT66) labeled with the TR-FRET europium chelate donor dye are added to a final concentration of 2 nM in a final volume of 20 μL. The TR-FRET signal emitted at 665 nm is read one hour after the addition of antibodies using a TR-FRET plate reader such as the Envision® Multilabel Plate reader (PerkinElmer). The emitted signal at 665 nm is proportional to the extent of peptide phosphorylation, Control reactions indicative of background are performed excluding ATP from the reaction.
(§2) Assay conditions are identical to those used described for FIG. 1.

KIT = KIT (Homo sapiens, UniProt P10721); test: TR-FRET kinase assay, KIT; settings: Kinase Concentration 2 nM; 50 nM ULight-labeled substrate, 200 micromolar ATP, 2 hours
Procedure: as §1, §2

HER4 (ERBB4) = HER4 (ERBB4) (Homo sapiens, UniProt Q15303); test: TR-FRET kinase assay, HER4 (ERBB4); settings: Kinase Concentration 0.1 nM; 50 nM ULight-labeled substrate, 200 micromolar ATP, 2 hours
Procedure: as §1, §2

ROR2 = ROR2 (Homo sapiens, UniProt Q01974); test: TR-FRET kinase assay, ROR2; settings: Kinase Concentration 20 nM; 50 nM ULight-labeled substrate, 200 micromolar ATP, 2 hours
Procedure: as §1, §2

BRK = BRK (Homo sapiens, UniProt Q13882); test: TR-FRET kinase assay, BRK; settings: Kinase Concentration 3 nM; 50 nM ULight-labeled substrate, 200 micromolar ATP, 2 hours
Procedure: as §1, §2

EphA8 = molecular target: T1, EphA8 (Homo sapiens, UniProt P29322); test: TR-FRET kinase assay, EphA8; settings: Kinase Concentration 0.25 nM; 50 nM ULight-labeled substrate, 200 micromolar ATP, 2 hours
T1 sequence (P29322 28-1005): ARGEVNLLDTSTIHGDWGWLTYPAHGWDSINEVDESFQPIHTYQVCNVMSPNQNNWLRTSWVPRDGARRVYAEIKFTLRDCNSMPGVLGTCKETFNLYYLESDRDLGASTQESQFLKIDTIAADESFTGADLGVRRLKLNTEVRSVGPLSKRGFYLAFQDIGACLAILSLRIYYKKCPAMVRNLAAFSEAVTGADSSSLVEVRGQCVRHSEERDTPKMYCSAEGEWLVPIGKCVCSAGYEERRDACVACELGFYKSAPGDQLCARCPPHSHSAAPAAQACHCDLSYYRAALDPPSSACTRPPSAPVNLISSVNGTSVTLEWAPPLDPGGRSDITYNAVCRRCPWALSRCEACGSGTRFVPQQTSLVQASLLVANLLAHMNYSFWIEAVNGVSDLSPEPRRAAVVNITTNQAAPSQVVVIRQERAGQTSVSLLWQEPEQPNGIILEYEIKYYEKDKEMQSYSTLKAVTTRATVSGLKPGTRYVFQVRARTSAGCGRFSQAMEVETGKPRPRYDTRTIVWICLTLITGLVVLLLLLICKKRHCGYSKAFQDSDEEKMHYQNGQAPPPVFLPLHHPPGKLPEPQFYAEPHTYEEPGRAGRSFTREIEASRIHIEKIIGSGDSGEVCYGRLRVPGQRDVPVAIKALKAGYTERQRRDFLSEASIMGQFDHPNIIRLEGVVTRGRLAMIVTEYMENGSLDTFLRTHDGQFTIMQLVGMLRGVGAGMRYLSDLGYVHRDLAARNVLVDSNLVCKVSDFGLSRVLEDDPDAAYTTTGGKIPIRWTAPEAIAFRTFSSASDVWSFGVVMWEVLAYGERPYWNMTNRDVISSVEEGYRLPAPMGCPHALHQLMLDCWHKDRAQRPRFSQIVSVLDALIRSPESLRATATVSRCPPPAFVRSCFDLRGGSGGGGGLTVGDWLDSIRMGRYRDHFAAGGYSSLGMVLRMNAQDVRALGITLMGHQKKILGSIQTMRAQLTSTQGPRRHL
Procedure: as §1, §2

EGFR = EGFR (Homo sapiens, UniProt P00533); test: TR-FRET kinase assay, EGFR; settings: Kinase Concentration 0.5 nM; 50 nM ULight-labeled substrate, 200 micromolar ATP, 2 hours
Procedure: as §1, §2

EphA2 = EphA2 (Homo sapiens, UniProt P29317); test: TR-FRET kinase assay, EphA2; settings: Kinase Concentration 0.25 nM; 50 nM ULight-labeled substrate, 200 micromolar ATP, 2 hours
Procedure: as §1, §2

ITK = molecular target: T2, ITK (Homo sapiens, UniProt Q08881); test: TR-FRET kinase assay, ITK; settings: Kinase Concentration 0.5 nM; 50 nM ULight-labeled substrate, 200 micromolar ATP, 2 hours
T2 sequence (Q08881 1-620): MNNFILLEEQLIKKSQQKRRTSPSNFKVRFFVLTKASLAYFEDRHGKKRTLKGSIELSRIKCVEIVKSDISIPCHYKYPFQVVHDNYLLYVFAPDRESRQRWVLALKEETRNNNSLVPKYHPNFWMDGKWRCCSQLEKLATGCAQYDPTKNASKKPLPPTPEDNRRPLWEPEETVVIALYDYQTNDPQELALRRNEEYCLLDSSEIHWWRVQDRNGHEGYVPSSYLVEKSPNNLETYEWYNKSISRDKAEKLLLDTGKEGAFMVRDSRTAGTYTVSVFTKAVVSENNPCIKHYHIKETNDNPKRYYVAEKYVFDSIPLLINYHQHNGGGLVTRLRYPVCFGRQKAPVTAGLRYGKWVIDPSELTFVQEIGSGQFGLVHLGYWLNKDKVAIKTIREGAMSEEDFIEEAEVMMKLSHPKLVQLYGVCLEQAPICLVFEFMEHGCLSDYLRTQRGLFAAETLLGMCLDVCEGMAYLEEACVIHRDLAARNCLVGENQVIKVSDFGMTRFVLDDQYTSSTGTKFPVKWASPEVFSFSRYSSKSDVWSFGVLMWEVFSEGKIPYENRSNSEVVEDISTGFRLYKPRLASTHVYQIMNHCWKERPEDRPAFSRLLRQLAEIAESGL
Procedure: as §1, §2

TRKA (NTRK1) = TRKA (NTRK1) (Homo sapiens, UniProt P04629); test: TR-FRET kinase assay, TRKA (NTRK1); settings: Kinase Concentration 0.5 nM; 50 nM ULight-labeled substrate, 200 micromolar ATP, 2 hours
Procedure: as §1, §2

TYK2 = TYK2 (Homo sapiens, UniProt P29597); test: TR-FRET kinase assay, TYK2; settings: Kinase Concentration 4 nM; 50 nM ULight-labeled substrate, 200 micromolar ATP, 2 hours
Procedure: as §1, §2

ROS, sequence (P08922 28-2347, species assumed): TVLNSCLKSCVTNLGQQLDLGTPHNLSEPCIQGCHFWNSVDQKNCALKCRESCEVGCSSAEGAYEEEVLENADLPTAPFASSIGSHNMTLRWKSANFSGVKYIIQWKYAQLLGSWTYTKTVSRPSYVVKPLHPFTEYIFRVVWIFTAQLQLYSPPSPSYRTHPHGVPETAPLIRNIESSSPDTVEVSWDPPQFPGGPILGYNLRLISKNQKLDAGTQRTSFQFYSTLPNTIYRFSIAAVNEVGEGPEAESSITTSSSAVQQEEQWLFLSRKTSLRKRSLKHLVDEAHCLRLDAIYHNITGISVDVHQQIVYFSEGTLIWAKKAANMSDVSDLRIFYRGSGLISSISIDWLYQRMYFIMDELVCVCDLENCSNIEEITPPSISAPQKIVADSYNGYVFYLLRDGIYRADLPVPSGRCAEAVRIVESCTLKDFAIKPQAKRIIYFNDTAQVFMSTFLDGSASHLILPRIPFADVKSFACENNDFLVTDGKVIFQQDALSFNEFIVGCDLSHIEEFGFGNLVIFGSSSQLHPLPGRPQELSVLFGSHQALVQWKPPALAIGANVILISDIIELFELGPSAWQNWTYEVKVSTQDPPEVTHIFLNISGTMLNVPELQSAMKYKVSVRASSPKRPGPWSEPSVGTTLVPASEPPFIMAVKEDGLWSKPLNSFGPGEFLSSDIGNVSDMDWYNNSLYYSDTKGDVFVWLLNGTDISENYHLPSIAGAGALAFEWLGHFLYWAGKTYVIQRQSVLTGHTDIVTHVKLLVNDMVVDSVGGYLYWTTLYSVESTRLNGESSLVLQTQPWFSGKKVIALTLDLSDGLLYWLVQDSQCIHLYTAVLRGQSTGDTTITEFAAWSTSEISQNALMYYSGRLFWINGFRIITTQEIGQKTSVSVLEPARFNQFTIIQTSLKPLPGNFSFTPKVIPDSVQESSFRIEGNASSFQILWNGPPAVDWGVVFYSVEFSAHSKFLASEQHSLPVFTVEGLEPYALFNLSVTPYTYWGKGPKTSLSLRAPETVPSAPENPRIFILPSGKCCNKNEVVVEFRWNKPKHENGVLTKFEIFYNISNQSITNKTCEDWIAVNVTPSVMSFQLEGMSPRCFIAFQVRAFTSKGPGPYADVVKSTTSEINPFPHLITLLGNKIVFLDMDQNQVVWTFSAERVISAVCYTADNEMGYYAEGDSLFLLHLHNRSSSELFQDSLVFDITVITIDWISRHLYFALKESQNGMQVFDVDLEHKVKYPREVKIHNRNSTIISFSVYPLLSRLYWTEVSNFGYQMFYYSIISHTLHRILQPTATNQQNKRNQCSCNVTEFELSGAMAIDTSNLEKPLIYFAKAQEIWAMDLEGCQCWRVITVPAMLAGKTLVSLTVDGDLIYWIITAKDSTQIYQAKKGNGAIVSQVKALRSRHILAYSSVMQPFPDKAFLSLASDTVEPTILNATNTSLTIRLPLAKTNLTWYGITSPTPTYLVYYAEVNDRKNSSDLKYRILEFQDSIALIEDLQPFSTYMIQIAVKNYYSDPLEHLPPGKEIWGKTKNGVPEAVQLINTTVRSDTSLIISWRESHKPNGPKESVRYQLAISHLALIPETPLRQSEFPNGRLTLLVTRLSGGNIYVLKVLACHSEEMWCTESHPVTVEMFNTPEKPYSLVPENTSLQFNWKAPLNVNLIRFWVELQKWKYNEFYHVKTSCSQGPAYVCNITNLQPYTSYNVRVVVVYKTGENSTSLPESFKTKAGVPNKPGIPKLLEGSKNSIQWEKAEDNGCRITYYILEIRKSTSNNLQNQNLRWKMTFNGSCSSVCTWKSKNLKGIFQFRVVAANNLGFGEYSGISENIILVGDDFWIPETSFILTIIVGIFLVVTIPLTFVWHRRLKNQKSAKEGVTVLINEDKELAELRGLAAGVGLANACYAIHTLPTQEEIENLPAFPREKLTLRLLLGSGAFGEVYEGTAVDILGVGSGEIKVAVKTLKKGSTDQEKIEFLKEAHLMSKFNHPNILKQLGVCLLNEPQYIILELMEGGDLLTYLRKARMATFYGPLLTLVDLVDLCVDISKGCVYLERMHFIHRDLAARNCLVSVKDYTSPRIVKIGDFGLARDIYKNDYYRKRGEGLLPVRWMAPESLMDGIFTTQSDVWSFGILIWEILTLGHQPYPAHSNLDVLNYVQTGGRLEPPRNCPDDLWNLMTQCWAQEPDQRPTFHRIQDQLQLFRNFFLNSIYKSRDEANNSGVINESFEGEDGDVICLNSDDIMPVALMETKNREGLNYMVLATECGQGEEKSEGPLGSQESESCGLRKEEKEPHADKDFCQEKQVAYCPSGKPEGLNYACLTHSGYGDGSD
BRK, sequence (Q13882 whole entry, species assumed): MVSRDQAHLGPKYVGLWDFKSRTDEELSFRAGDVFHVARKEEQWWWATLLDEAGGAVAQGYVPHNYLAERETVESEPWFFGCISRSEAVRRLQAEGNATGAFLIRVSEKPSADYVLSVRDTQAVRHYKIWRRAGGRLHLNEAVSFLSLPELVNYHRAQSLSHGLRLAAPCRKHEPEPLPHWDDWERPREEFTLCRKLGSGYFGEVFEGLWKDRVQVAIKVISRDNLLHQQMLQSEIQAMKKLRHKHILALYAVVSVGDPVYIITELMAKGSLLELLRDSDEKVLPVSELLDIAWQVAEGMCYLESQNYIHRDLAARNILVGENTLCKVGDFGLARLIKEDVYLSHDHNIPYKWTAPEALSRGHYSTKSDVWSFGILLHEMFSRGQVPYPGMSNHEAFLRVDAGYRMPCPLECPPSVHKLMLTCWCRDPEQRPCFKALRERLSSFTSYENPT
TYK2, sequence (P29597 whole entry, species assumed): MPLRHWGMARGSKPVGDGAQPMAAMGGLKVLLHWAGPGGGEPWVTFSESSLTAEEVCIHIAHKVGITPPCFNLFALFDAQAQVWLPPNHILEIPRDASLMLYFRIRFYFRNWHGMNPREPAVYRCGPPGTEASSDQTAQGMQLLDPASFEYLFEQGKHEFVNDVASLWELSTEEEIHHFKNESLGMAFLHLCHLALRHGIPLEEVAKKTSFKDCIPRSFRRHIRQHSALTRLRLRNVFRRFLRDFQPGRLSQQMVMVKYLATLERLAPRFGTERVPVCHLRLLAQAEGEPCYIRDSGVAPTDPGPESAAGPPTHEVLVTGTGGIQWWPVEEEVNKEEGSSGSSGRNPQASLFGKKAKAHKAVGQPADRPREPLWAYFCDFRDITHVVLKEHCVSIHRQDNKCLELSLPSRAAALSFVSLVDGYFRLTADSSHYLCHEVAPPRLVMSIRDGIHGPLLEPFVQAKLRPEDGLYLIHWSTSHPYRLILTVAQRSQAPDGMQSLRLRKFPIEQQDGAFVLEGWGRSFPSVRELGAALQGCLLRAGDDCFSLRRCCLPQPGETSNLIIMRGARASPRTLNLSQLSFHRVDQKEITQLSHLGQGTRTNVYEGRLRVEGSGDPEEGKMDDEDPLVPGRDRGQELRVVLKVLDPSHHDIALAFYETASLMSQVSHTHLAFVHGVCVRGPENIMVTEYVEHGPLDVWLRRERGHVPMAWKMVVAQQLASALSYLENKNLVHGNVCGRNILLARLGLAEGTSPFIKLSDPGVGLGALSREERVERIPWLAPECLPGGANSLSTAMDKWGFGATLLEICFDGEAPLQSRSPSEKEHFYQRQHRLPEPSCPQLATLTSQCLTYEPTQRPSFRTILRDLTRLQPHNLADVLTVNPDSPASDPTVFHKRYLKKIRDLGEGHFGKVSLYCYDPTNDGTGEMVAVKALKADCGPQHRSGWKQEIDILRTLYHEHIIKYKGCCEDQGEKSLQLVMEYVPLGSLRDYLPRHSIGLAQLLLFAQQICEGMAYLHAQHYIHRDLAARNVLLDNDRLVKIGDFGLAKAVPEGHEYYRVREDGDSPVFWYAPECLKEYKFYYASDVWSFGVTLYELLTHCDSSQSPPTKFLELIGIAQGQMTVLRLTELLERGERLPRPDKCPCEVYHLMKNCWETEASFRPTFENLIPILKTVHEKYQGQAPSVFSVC
TRKA (NTRK1), sequence (P04629 33-796, species assumed): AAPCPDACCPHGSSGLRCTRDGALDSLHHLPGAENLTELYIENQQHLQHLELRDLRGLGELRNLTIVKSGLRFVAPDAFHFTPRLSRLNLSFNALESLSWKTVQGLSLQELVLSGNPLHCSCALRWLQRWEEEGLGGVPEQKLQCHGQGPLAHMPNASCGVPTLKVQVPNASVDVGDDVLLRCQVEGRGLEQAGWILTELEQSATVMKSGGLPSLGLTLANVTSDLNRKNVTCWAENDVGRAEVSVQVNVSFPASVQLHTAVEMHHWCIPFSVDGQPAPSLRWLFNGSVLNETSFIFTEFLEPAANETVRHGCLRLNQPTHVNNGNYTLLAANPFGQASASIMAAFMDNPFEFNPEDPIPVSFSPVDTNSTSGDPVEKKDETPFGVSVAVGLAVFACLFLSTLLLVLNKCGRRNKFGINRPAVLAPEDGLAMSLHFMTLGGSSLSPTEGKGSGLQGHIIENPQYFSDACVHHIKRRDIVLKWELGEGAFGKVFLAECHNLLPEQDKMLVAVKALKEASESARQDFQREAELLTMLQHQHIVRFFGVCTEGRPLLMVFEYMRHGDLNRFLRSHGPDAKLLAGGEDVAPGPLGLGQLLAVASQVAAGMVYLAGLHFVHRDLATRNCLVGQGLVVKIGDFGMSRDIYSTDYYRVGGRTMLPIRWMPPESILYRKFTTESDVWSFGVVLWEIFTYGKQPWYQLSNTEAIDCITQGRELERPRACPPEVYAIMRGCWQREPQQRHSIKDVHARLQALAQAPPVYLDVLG

C AYE AYE AYE K EYA EYA EYA K AYA EYE R (CAYEAYEAYEKEYAEYAEYAKAYAEYER; tyrosine kinase substrate peptide) [BRB1]
Signal to Noise ratio with BRB1 Peptide (ROS): 24.5 | Signal to Noise ratio with BRB1 Peptide (KIT): 1.5 | Signal to Noise ratio with BRB1 Peptide (HER4 (ERBB4)): 3.1 | Signal to Noise ratio with BRB1 Peptide (ROR2): 1.0 | Signal to Noise ratio with BRB1 Peptide (BRK): 2.4 | Signal to Noise ratio with BRB1 Peptide (EphA8): 32.3 | Signal to Noise ratio with BRB1 Peptide (EGFR): 10.0 | Signal to Noise ratio with BRB1 Peptide (EphA2): 26.9 | Signal to Noise ratio with BRB1 Peptide (ITK): 8.4 | Signal to Noise ratio with BRB1 Peptide (TRKA (NTRK1)): 23.2 | Signal to Noise ratio with BRB1 Peptide (TYK2): 7.3
